Source: the supplement of paper PMC7125110
± gives the standard error. This sample holds only a part of the variants without activity.

B1: glmS ribozyme (parent)
chain: AUAAAAGCGCCAGAACUACAGAAAUGUAGUUGACGAGGAGGAGGUUUAUCGAAUUUUCGGCGGAUGCCUCCAAA

How the values were obtained:
Conditions in all cases: with glucosamine-6-phosphate
glucosamine-6-phosphate [1] = variants of: B1; assay: self-cleavage kobs at 40 uM GlcN6P; higher = faster cleavage; RNA array
Procedure, shortened: (§1)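 kcat and KM were obtained from weighted Michaelis–Menten fits across concentrations of kobs values. Those came from one- or two-exponential decay fits to per-tile medians normalised to baseline and to non-cleaving reference variants. The variants were barcoded ribozymes transcribed in situ by E. coli RNA polymerase on sequenced MiSeq chips and tracked through a hybridised Cy3 probe at 37 °C, with 40 μM to 10 mM glucosamine-6-phosphate in HEPES/KCl/Mg(OAc)2 buffer flowed in.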

glucosamine-6-phosphate [2] = variants of: B1; assay: self-cleavage kobs at 160 uM GlcN6P; higher = faster cleavage; RNA array
Procedure, shortened: as §1

glucosamine-6-phosphate [3] = variants of: B1; assay: self-cleavage kobs at 2500 uM GlcN6P; higher = faster cleavage; RNA array
Procedure, shortened: as §1

glucosamine-6-phosphate [4] = variants of: B1; assay: self-cleavage kobs at 10000 uM GlcN6P; higher = faster cleavage; RNA array
Procedure, shortened: as §1

glucosamine-6-phosphate [5] = variants of: B1; assay: self-cleavage kobs at 640 uM GlcN6P; higher = faster cleavage; RNA array
Procedure, shortened: as §1

Variant	self-cleavage kobs at 40 uM GlcN6P (glucosamine-6-phosphate [1]) [s⁻¹]	self-cleavage kobs at 160 uM GlcN6P (glucosamine-6-phosphate [2]) [s⁻¹]	self-cleavage kobs at 2500 uM GlcN6P (glucosamine-6-phosphate [3]) [s⁻¹]	self-cleavage kobs at 10000 uM GlcN6P (glucosamine-6-phosphate [4]) [s⁻¹]	self-cleavage kobs at 640 uM GlcN6P (glucosamine-6-phosphate [5]) [s⁻¹]
A6C G35U	< 1e-05	< 1e-05	< 1e-05	< 1e-05	
C8G C10U	< 1e-05			< 1e-05	
G7U C8G A12U U49G	< 1e-05	< 1e-05	< 1e-05	< 1e-05	< 1e-05
U31C A36G A39G U47C	< 1e-05			< 1e-05	
A6G C50A U65G	< 1e-05				
C11U A36G C58U C67G	4.33e-05 ± 2.1e-05				
C8U A12C C61G	< 1e-05		< 1e-05	< 1e-05	
A15C U30G A39U	0.00162 ± 0.00029			0.0346 ± 0.013	
G44U G51U C67G	< 1e-05		< 1e-05	< 1e-05	
A12U G44C U65A	< 1e-05				
G44U C50G	< 1e-05			< 1e-05	
C61U C71A	< 1e-05	< 1e-05	< 1e-05		< 1e-05
C8G G38C C50A G66U	< 1e-05	< 1e-05	< 1e-05		< 1e-05
C8G A36U G37U A52U U54A	< 1e-05			< 1e-05	
C8G G9U	< 1e-05		< 1e-05		< 1e-05
C34G G44U	< 1e-05	< 1e-05		< 1e-05	< 1e-05
A6G A53C C58A C61A	< 1e-05			< 1e-05	
A6U A33U	< 1e-05		< 1e-05	< 1e-05	< 1e-05
C8A C67G	< 1e-05	< 1e-05	< 1e-05	< 1e-05	< 1e-05
U46A G59U	< 1e-05	< 1e-05		< 1e-05	< 1e-05
A12U A14U G32U	< 1e-05			8.48e-05 ± 2e-05	
G35C G59A	< 1e-05	< 1e-05	< 1e-05		< 1e-05
